Measurements published in US20230265151A1, “GIP/GLP1 CO-AGONIST COMPOUNDS” (priority 2020, published 2023).

T1: human GIP receptor (human, UniProt P48546 22-466)
T1 sequence (looked up): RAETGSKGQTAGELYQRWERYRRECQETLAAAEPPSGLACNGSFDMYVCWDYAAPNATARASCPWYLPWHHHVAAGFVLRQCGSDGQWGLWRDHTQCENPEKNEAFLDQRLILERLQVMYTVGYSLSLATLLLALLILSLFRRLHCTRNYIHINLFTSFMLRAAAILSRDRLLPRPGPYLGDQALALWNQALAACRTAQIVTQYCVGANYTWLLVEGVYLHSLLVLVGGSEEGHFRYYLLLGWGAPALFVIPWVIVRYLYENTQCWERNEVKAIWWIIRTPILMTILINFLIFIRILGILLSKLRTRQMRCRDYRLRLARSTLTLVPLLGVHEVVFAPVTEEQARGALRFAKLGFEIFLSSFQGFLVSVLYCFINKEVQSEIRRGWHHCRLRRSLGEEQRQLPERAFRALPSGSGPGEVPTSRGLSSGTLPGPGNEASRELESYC

B1: Example 135 (peptide)
peptide: YXEGTXTSDXSIXLDXKAQXEFIXXLIEGGPSSGAPPPSK
modifications: Aib2, αMeF(2F)6, 4Pal10, αMeL13, Orn16, Aib20, D-Glu24, αMeY25, K17 and K40: K(AEEA2-(γ-Glu)-(4-(4-tert-butylphenyl)butanoyl)), C-terminal NH2
B2: Example 141 (peptide)
peptide: YXEGTXTSDXSIXLDXKAQXEFIXXLIEGGPSSGAPPPSK
modifications: Aib2, αMeF(2F)6, 4Pal10, αMeL13, Orn16, Aib20, D-Glu24, αMeY25, K17 and K40: K(AEEA2-(γ-Glu)-CO-(CH2)10-CH3), C-terminal NH2
B3: Example 118 (peptide)
peptide: YXEGTXTSDVSIXLDXKAQXEXIKXLIEGGPSSGAPPPS
modifications: Aib2, αMeF(2F)6, αMeL13, Orn16, Aib20, αMeF22, αMeY25, K17 and K24: K(AEEA2-(γ-Glu)-CO-(CH2)12-CO2H), C-terminal NH2
B4: Example 133 (peptide)
peptide: YXEGTXTSDXSIXLDXKAQXEFIXXLIKGGPSSGAPPPS
modifications: Aib2, αMeF(2F)6, 4Pal10, αMeL13, Orn16, Aib20, D-Glu24, αMeY25, K17 and K28: K(AEEA2-(γ-Glu)-(4-(4-tert-butylphenyl)butanoyl)), C-terminal NH2
B5: Example 139 (peptide)
peptide: YXEGTXTSDXSIXLDXKAQXEFIXXLIKGGPSSGAPPPS
modifications: Aib2, αMeF(2F)6, 4Pal10, αMeL13, Orn16, Aib20, D-Glu24, αMeY25, K17 and K28: K(AEEA2-(γ-Glu)-CO-(CH2)10-CH3), C-terminal NH2
B6: Example 143 (peptide)
peptide: YXEGTXTSDXSIXLDXKAQXEFIXXLIEGGKSSGAPPPS
modifications: Aib2, αMeF(2F)6, 2FA10, αMeL13, Orn16, Aib20, D-Glu24, αMeY25, K17 and K31: K(AEEA2-(γ-Glu)-CO-(CH2)12-CO2H), C-terminal NH2
B7: Example 120 (peptide)
peptide: YXEGTXTSDXSIXLDXKAQXEXIKXLIEGGPSSGAPPPS
modifications: Aib2, αMeF(2F)6, Ac5c10, αMeL13, Orn16, Aib20, αMeF22, αMeY25, K17 and K24: K(AEEA2-(γ-Glu)-CO-(CH2)12-CO2H), C-terminal NH2
B8: Example 13 (peptide)
peptide: YXEGTXTSDXSIXLDXKAQXEFIXXLIEGGKSSGAPPPS
modifications: Aib2, αMeF(2F)6, 4Pal10, αMeL13, Orn16, Aib20, D-Glu24, αMeY25, K17 and K31: K(AEEA-(γ-Glu)-CO-(CH2)14-CH3), C-terminal NH2
B9: Example 136 (peptide)
peptide: YXEGTXTSDKSIXLDXKAQXEFIXXLIEGGPSSGAPPPS
modifications: Aib2, αMeF(2F)6, αMeL13, Orn16, Aib20, D-Glu24, αMeY25, K10 and K17: K(AEEA2-(γ-Glu)-CO-(CH2)10-CH3), C-terminal NH2
B10: Example 146 (peptide)
peptide: YXEGTXTSDXSIXLDXKAQXEFIXXLIEGGKSSGAPPPS
modifications: Aib2, αMeF(2F)6, 3TA10, αMeL13, Orn16, Aib20, D-Glu24, αMeY25, K17 and K31: K(AEEA2-(γ-Glu)-CO-(CH2)12-CO2H), C-terminal NH2
B11: Example 132 (peptide)
peptide: YXEGTXTSDXSIXLDXKAQXEFIKXLIEGGPSSGAPPPS
modifications: Aib2, αMeF(2F)6, 4Pal10, αMeL13, Orn16, Aib20, αMeY25, K17 and K24: K(AEEA2-(γ-Glu)-(4-(4-tert-butylphenyl)butanoyl)), C-terminal NH2
B12: Example 145 (peptide)
peptide: YXEGTXTSDXSIXLDXKAQXEFIXXLIEGGKSSGAPPPS
modifications: Aib2, αMeF(2F)6, 2TA10, αMeL13, Orn16, Aib20, D-Glu24, αMeY25, K17 and K31: K(AEEA2-(γ-Glu)-CO-(CH2)12-CO2H), C-terminal NH2
B13: Example 121 (peptide)
peptide: YXEGTXTSDXXIXLDXKAQXEXIKXLIEGGPSSGAPPPS
modifications: Aib2, αMeF(2F)6, 4Pal10, Aib11, αMeL13, Orn16, Aib20, αMeF22, αMeF25, K17 and K24: K(AEEA2-(γ-Glu)-CO-(CH2)12-CO2H), C-terminal NH2
B14: Example 149 (peptide)
peptide: YXEGTXTSDXSIXLDXKAQXEFIXXLIEGGKSSGAPPPS
modifications: Aib2, αMeF(2F)6, 4Pal10, αMeL13, Orn16, Orn20, D-Glu24, αMeY25, K17 and K31: K(AEEA2-(γ-Glu)-CO-(CH2)12-CO2H), C-terminal NH2
B15: Example 127 (peptide)
peptide: YXEGTXTSDXSIXLDXKAQXKFIXXLIEGGPSSGAPPPS
modifications: Aib2, αMeF(2F)6, 4Pal10, αMeL13, Orn16, Aib20, D-Glu24, αMeY25, K17 and K21: K(AEEA2-(γ-Glu)-(10-(4-carboxyphenoxy)decanoyl)), C-terminal NH2
B16: Example 125 (peptide)
peptide: YXEGTXTSDXSIXLDXKAQXEFIXXLIEGGKSSGAPPPS
modifications: Aib2, αMeF(2F)6, 4Pal10, αMeL13, Orn16, Aib20, D-Glu24, αMeY25, K17 and K31: K(AEEA2-(γ-Glu)-(7-(4-carboxyphenoxy)heptanoyl)), C-terminal NH2
B17: Example 131 (peptide)
peptide: YXEGTXTSDXSIXLDXKAQXKFIXXLIEGGPSSGAPPPS
modifications: Aib2, αMeF(2F)6, 4Pal10, αMeL13, Orn16, Aib20, D-Glu24, αMeY25, K17 and K21: K(AEEA2-(γ-Glu)-(4-(4-tert-butylphenyl)butanoyl)), C-terminal NH2
B18: Example 130 (peptide)
peptide: YXEGTXTSDKSIXLDXKAQXEFIXXLIEGGPSSGAPPPS
modifications: Aib2, αMeF(2F)6, αMeL13, Orn16, Aib20, D-Glu24, αMeY25, K10 and K17: K(AEEA2-(γ-Glu)-(4-(4-tert-butylphenyl)butanoyl)), C-terminal NH2

Tests used:
Experiment in all cases: cell-based or functional assay
human glucagon receptor = human glucagon receptor (human, UniProt P47871 26-477)
human GIP receptor = target: T1, human GIP receptor
human GLP-1 receptor = human GLP-1 receptor (human, UniProt P43220 24-463)

| Binder | EC50, cAMP (human glucagon receptor) | EC50, cAMP (human GIP receptor) | Emax, cAMP (human GIP receptor) | EC50, cAMP (human GLP-1 receptor) | Emax, cAMP (human GLP-1 receptor) |
| --- | --- | --- | --- | --- | --- |
| B1 | > 9950 nM | 0.0184 nM | 92.3% | 0.271 nM |  |
| B2 | > 9950 nM | 0.00723 nM | 98.8% | 0.0693 nM |  |
| B3 | > 9950 nM | 0.0547 nM | 94.7% | 0.437 nM |  |
| B4 | > 9950 nM | 0.018 nM |  | 0.258 nM |  |
| B5 | > 9950 nM | 0.0108 nM |  | 0.141 nM | 111% |
| B6 | > 9950 nM | 0.022 nM |  | 0.512 nM |  |
| B7 | > 9950 nM | 0.0866 nM |  | 1.43 nM |  |
| B8 | > 9950 nM | 0.00597 nM |  | 0.0214 nM |  |
| B9 | > 9950 nM | 0.0069 nM | 97.4% | 0.0918 nM |  |
| B10 | > 9950 nM | 0.0198 nM | 76.5% | 0.688 nM |  |
| B11 | > 9950 nM | 0.0208 nM |  | 0.182 nM |  |
| B12 | > 9950 nM | 0.0286 nM | 74.8% | 0.555 nM |  |
| B13 | > 9950 nM | 0.0271 nM | 92.8% | 8.95 nM |  |
| B14 | > 9950 nM | 0.0791 nM |  | 1.5 nM |  |
| B15 | > 9950 nM | 0.027 nM |  | 0.762 nM |  |
| B16 | > 9950 nM | 0.0547 nM |  | 2.78 nM |  |
| B17 | > 9950 nM | 0.0156 nM |  | 0.19 nM |  |
| B18 | > 9950 nM | 0.0266 nM | 94.7% | 0.204 nM | 100% |
